The record followed here is US20260015399A1 (Boehringer Ingelheim, published 2026).

*1 amine or outer side, *2 acyl side, *3 side chain or, on linkers, in order; H or OH if unused. Side-chain parts run from the residue outwards. The star is where a group is joined. C18 diacid = O=C(O)CCCCCCCCCCCCCCCCC(=O)*; γGlu = O=C(O)[C@H](CCC(=O)[*:2])N[*:1]; Isovaleryl = CC(C)CC(=O)*; Ahx = NCCCCCC(=O)O

For this assay, the target named is T1, human NPY2 receptor (human, UniProt P49146 1-381).
T1 construct: whole, on cells; also called hNPY2-R; hNPY2R
T1 sequence (looked up): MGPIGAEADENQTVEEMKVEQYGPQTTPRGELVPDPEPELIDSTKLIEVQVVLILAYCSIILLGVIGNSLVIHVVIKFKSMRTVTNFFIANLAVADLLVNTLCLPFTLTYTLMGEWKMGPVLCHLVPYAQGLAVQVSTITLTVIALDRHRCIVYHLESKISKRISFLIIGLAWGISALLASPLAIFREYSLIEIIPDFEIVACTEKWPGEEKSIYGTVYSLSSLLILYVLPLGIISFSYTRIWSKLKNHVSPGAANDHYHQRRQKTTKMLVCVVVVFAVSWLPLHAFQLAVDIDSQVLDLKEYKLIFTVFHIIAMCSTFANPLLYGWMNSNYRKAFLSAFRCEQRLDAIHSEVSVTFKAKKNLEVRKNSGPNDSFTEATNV
Nature of the assay: RLB: displacement of 125I-PYY(1-36) from hNPY2R membranes.

B1: Compound 120 (peptide)
peptide: Isovaleryl-APAK([Ahx-γGlu-C18 diacid])PEEAATPEEIQRYYVALRHYYNWLTRQRY-NH2
SMILES: CC[C@H](C)[C@H](NC(=O)[C@H](CCC(=O)O)NC(=O)[C@H](CCC(=O)O)NC(=O)[C@@H]1CCCN1C(=O)[C@@H](NC(=O)[C@H](C)NC(=O)[C@H](C)NC(=O)[C@H](CCC(=O)O)NC(=O)[C@H](CCC(=O)O)NC(=O)[C@@H]1CCCN1C(=O)[C@H](CCCCNC(=O)CCCCCNC(=O)CC[C@H](NC(=O)CCCCCCCCCCCCCCCCC(=O)O)C(=O)O)NC(=O)[C@H](C)NC(=O)[C@@H]1CCCN1C(=O)[C@H](C)NC(=O)CC(C)C)[C@@H](C)O)C(=O)N[C@@H](CCC(N)=O)C(=O)N[C@@H](CCCNC(=N)N)C(=O)N[C@@H](Cc1ccc(O)cc1)C(=O)N[C@@H](Cc1ccc(O)cc1)C(=O)N[C@H](C(=O)N[C@@H](C)C(=O)N[C@@H](CC(C)C)C(=O)N[C@@H](CCCNC(=N)N)C(=O)N[C@@H](Cc1c[nH]cn1)C(=O)N[C@@H](Cc1ccc(O)cc1)C(=O)N[C@@H](Cc1ccc(O)cc1)C(=O)N[C@@H](CC(N)=O)C(=O)N[C@@H](Cc1c[nH]c2ccccc12)C(=O)N[C@@H](CC(C)C)C(=O)N[C@H](C(=O)N[C@@H](CCCNC(=N)N)C(=O)N[C@@H](CCC(N)=O)C(=O)N[C@@H](CCCNC(=N)N)C(=O)N[C@@H](Cc1ccc(O)cc1)C(N)=O)[C@@H](C)O)C(C)C
The molecule B1 came in with a Ki of 1.49 nM.

B2: Compound 123 (peptide)
peptide: Isovaleryl-APEK([Ahx-γGlu-C18 diacid])PEEDAAPEELQKYYVSLRHYYNWLTRQRY-NH2
SMILES: CC(C)CC(=O)N[C@@H](C)C(=O)N1CCC[C@H]1C(=O)N[C@@H](CCC(=O)O)C(=O)N[C@@H](CCCCNC(=O)CCCCCNC(=O)CC[C@H](NC(=O)CCCCCCCCCCCCCCCCC(=O)O)C(=O)O)C(=O)N1CCC[C@H]1C(=O)N[C@@H](CCC(=O)O)C(=O)N[C@@H](CCC(=O)O)C(=O)N[C@@H](CC(=O)O)C(=O)N[C@@H](C)C(=O)N[C@@H](C)C(=O)N1CCC[C@H]1C(=O)N[C@@H](CCC(=O)O)C(=O)N[C@@H](CCC(=O)O)C(=O)N[C@@H](CC(C)C)C(=O)N[C@@H](CCC(N)=O)C(=O)N[C@@H](CCCCN)C(=O)N[C@@H](Cc1ccc(O)cc1)C(=O)N[C@@H](Cc1ccc(O)cc1)C(=O)N[C@H](C(=O)N[C@@H](CO)C(=O)N[C@@H](CC(C)C)C(=O)N[C@@H](CCCNC(=N)N)C(=O)N[C@@H](Cc1c[nH]cn1)C(=O)N[C@@H](Cc1ccc(O)cc1)C(=O)N[C@@H](Cc1ccc(O)cc1)C(=O)N[C@@H](CC(N)=O)C(=O)N[C@@H](Cc1c[nH]c2ccccc12)C(=O)N[C@@H](CC(C)C)C(=O)N[C@H](C(=O)N[C@@H](CCCNC(=N)N)C(=O)N[C@@H](CCC(N)=O)C(=O)N[C@@H](CCCNC(=N)N)C(=O)N[C@@H](Cc1ccc(O)cc1)C(N)=O)[C@@H](C)O)C(C)C
As to B2, the Ki was found to be 3.65 nM.

B3: Compound 124 (peptide)
peptide: Isovaleryl-APEK([Ahx-γGlu-C18 diacid])PEAAAEPEEIQRYYVSLRHYYNWLTRQRY-NH2
SMILES: CC[C@H](C)[C@H](NC(=O)[C@H](CCC(=O)O)NC(=O)[C@H](CCC(=O)O)NC(=O)[C@@H]1CCCN1C(=O)[C@H](CCC(=O)O)NC(=O)[C@H](C)NC(=O)[C@H](C)NC(=O)[C@H](C)NC(=O)[C@H](CCC(=O)O)NC(=O)[C@@H]1CCCN1C(=O)[C@H](CCCCNC(=O)CCCCCNC(=O)CC[C@H](NC(=O)CCCCCCCCCCCCCCCCC(=O)O)C(=O)O)NC(=O)[C@H](CCC(=O)O)NC(=O)[C@@H]1CCCN1C(=O)[C@H](C)NC(=O)CC(C)C)C(=O)N[C@@H](CCC(N)=O)C(=O)N[C@@H](CCCNC(=N)N)C(=O)N[C@@H](Cc1ccc(O)cc1)C(=O)N[C@@H](Cc1ccc(O)cc1)C(=O)N[C@H](C(=O)N[C@@H](CO)C(=O)N[C@@H](CC(C)C)C(=O)N[C@@H](CCCNC(=N)N)C(=O)N[C@@H](Cc1c[nH]cn1)C(=O)N[C@@H](Cc1ccc(O)cc1)C(=O)N[C@@H](Cc1ccc(O)cc1)C(=O)N[C@@H](CC(N)=O)C(=O)N[C@@H](Cc1c[nH]c2ccccc12)C(=O)N[C@@H](CC(C)C)C(=O)N[C@H](C(=O)N[C@@H](CCCNC(=N)N)C(=O)N[C@@H](CCC(N)=O)C(=O)N[C@@H](CCCNC(=N)N)C(=O)N[C@@H](Cc1ccc(O)cc1)C(N)=O)[C@@H](C)O)C(C)C
B3 displayed a Ki of 3.07 nM.

B4: Compound 125 (peptide)
peptide: Isovaleryl-APEK([Ahx-γGlu-C18 diacid])PEEDASPEELQRYYVELRHYYNWLTRQRY-NH2
SMILES: CC(C)CC(=O)N[C@@H](C)C(=O)N1CCC[C@H]1C(=O)N[C@@H](CCC(=O)O)C(=O)N[C@@H](CCCCNC(=O)CCCCCNC(=O)CC[C@H](NC(=O)CCCCCCCCCCCCCCCCC(=O)O)C(=O)O)C(=O)N1CCC[C@H]1C(=O)N[C@@H](CCC(=O)O)C(=O)N[C@@H](CCC(=O)O)C(=O)N[C@@H](CC(=O)O)C(=O)N[C@@H](C)C(=O)N[C@@H](CO)C(=O)N1CCC[C@H]1C(=O)N[C@@H](CCC(=O)O)C(=O)N[C@@H](CCC(=O)O)C(=O)N[C@@H](CC(C)C)C(=O)N[C@@H](CCC(N)=O)C(=O)N[C@@H](CCCNC(=N)N)C(=O)N[C@@H](Cc1ccc(O)cc1)C(=O)N[C@@H](Cc1ccc(O)cc1)C(=O)N[C@H](C(=O)N[C@@H](CCC(=O)O)C(=O)N[C@@H](CC(C)C)C(=O)N[C@@H](CCCNC(=N)N)C(=O)N[C@@H](Cc1c[nH]cn1)C(=O)N[C@@H](Cc1ccc(O)cc1)C(=O)N[C@@H](Cc1ccc(O)cc1)C(=O)N[C@@H](CC(N)=O)C(=O)N[C@@H](Cc1c[nH]c2ccccc12)C(=O)N[C@@H](CC(C)C)C(=O)N[C@H](C(=O)N[C@@H](CCCNC(=N)N)C(=O)N[C@@H](CCC(N)=O)C(=O)N[C@@H](CCCNC(=N)N)C(=O)N[C@@H](Cc1ccc(O)cc1)C(N)=O)[C@@H](C)O)C(C)C
On to B4, for which the affinity corresponds to a Ki of 3.37 nM.

B5: Compound 126 (peptide)
peptide: Isovaleryl-APEK([Ahx-γGlu-C18 diacid])PEEDAEPEELQRYYVSLRHYYNWLTRQRY-NH2
SMILES: CC(C)CC(=O)N[C@@H](C)C(=O)N1CCC[C@H]1C(=O)N[C@@H](CCC(=O)O)C(=O)N[C@@H](CCCCNC(=O)CCCCCNC(=O)CC[C@H](NC(=O)CCCCCCCCCCCCCCCCC(=O)O)C(=O)O)C(=O)N1CCC[C@H]1C(=O)N[C@@H](CCC(=O)O)C(=O)N[C@@H](CCC(=O)O)C(=O)N[C@@H](CC(=O)O)C(=O)N[C@@H](C)C(=O)N[C@@H](CCC(=O)O)C(=O)N1CCC[C@H]1C(=O)N[C@@H](CCC(=O)O)C(=O)N[C@@H](CCC(=O)O)C(=O)N[C@@H](CC(C)C)C(=O)N[C@@H](CCC(N)=O)C(=O)N[C@@H](CCCNC(=N)N)C(=O)N[C@@H](Cc1ccc(O)cc1)C(=O)N[C@@H](Cc1ccc(O)cc1)C(=O)N[C@H](C(=O)N[C@@H](CO)C(=O)N[C@@H](CC(C)C)C(=O)N[C@@H](CCCNC(=N)N)C(=O)N[C@@H](Cc1c[nH]cn1)C(=O)N[C@@H](Cc1ccc(O)cc1)C(=O)N[C@@H](Cc1ccc(O)cc1)C(=O)N[C@@H](CC(N)=O)C(=O)N[C@@H](Cc1c[nH]c2ccccc12)C(=O)N[C@@H](CC(C)C)C(=O)N[C@H](C(=O)N[C@@H](CCCNC(=N)N)C(=O)N[C@@H](CCC(N)=O)C(=O)N[C@@H](CCCNC(=N)N)C(=O)N[C@@H](Cc1ccc(O)cc1)C(N)=O)[C@@H](C)O)C(C)C
B5 yielded a Ki of 4.42 nM.

B6: Compound 121 (peptide)
peptide: Isovaleryl-APEK([Ahx-γGlu-C18 diacid])PEADASPEELQRYYVQLRHYYNWLTRQRY-NH2
SMILES: CC(C)CC(=O)N[C@@H](C)C(=O)N1CCC[C@H]1C(=O)N[C@@H](CCC(=O)O)C(=O)N[C@@H](CCCCNC(=O)CCCCCNC(=O)CC[C@H](NC(=O)CCCCCCCCCCCCCCCCC(=O)O)C(=O)O)C(=O)N1CCC[C@H]1C(=O)N[C@@H](CCC(=O)O)C(=O)N[C@@H](C)C(=O)N[C@@H](CC(=O)O)C(=O)N[C@@H](C)C(=O)N[C@@H](CO)C(=O)N1CCC[C@H]1C(=O)N[C@@H](CCC(=O)O)C(=O)N[C@@H](CCC(=O)O)C(=O)N[C@@H](CC(C)C)C(=O)N[C@@H](CCC(N)=O)C(=O)N[C@@H](CCCNC(=N)N)C(=O)N[C@@H](Cc1ccc(O)cc1)C(=O)N[C@@H](Cc1ccc(O)cc1)C(=O)N[C@H](C(=O)N[C@@H](CCC(N)=O)C(=O)N[C@@H](CC(C)C)C(=O)N[C@@H](CCCNC(=N)N)C(=O)N[C@@H](Cc1c[nH]cn1)C(=O)N[C@@H](Cc1ccc(O)cc1)C(=O)N[C@@H](Cc1ccc(O)cc1)C(=O)N[C@@H](CC(N)=O)C(=O)N[C@@H](Cc1c[nH]c2ccccc12)C(=O)N[C@@H](CC(C)C)C(=O)N[C@H](C(=O)N[C@@H](CCCNC(=N)N)C(=O)N[C@@H](CCC(N)=O)C(=O)N[C@@H](CCCNC(=N)N)C(=O)N[C@@H](Cc1ccc(O)cc1)C(N)=O)[C@@H](C)O)C(C)C
The molecule B6 gave a Ki of 1.45 nM.

For orientation: Ki means the equilibrium dissociation constant of an inhibitor or competing ligand from its target. Read a low Ki as higher affinity.
